Data from the supplement of paper PMC9732359.
± gives the uncertainty stated by the source.

Assay: protein stability index of a GFP-peptide fusion (yeast GPS) (PSI 1-4); higher = more stable; sorted into four equal gates, so the index is relative within each strain
Summary of the method: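 Each library plasmid carries Cherry plus GFP with a tiled 17-residue yeast protein peptide fused downstream, and the pooled library was carried in yeast. Mid-log cultures in leucine-free medium were sorted into four equal gates by GFP/Cherry ratio. Reads from Illumina sequencing of PCR-amplified plasmids from each gate were assigned to strains by barcodes. Per peptide, the protein stability index was computed as the summed products of gate read frequency and gate number.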

Sequence	protein stability index (doa10∆)	protein stability index (pdr5∆)	protein stability index (san1∆)	protein stability index (ubr1∆)
AIQFVKENELLFGEKSI [YCS4]	2.19 ± 0.098	2.09 ± 0.064	2.58 ± 0.16	1.92 ± 0.069
AISKKDLEEVKRFQVLY [SEC65]	2.6 ± 0.16	3.02 ± 0.1	2.8 ± 0.29	2.3 ± 0.13
AISLGLLKGSIDQVNEL [RPN9]	3.36 ± 0.098	3.08 ± 0.066	3.16 ± 0.095	3.21 ± 0.039
AKCNSLLQLKYFSNKTS [POP5]	1.84 ± 0.076	2.09 ± 0.055	1.8 ± 0.1	2.2 ± 0.08
AKILSQAPTELELQVAQ [RPS7A]	2.48 ± 0.048	2.75 ± 0.052	2.3 ± 0.053	2.5 ± 0.046
AKKLPNGNWEVGVHIAD [DIS3]	1.61 ± 0.16	2.25 ± 0.15	2.51 ± 0.19	3.25 ± 0.16
AKKQNYKLTNDEEGIFS [YCG1]	3.23 ± 0.098	3.45 ± 0.1	3.15 ± 0.074	3.19 ± 0.075
AKKTIQNPLNKSQNTAL [SIR4]	3.02 ± 0.058	3.1 ± 0.054	2.99 ± 0.042	3.08 ± 0.045
AKLESLLENSVDKNFDK [MTW1]	3.39 ± 0.06	3.24 ± 0.076	3.34 ± 0.048	3.32 ± 0.066
AKNRILASKIKQYERLR [RRI1]	2.48 ± 0.052	2.4 ± 0.049	2.37 ± 0.051	2.58 ± 0.036
AKRNLPHTTLVNECIAQ [CDC53]	2.37 ± 0.072	2.48 ± 0.059	2.65 ± 0.067	2.68 ± 0.04
ALAFGYVKSLHKQISAE [SIN4]	1.65 ± 0.056	2.21 ± 0.064	1.78 ± 0.11	2.32 ± 0.043
ALKGPVRDKLDEYQAAV [DPB4]	3.31 ± 0.072	3.29 ± 0.05	3.2 ± 0.052	3.17 ± 0.064
ALKKSRSKGKQNRPYNH [RPC17]	3.04 ± 0.093	2.46 ± 0.1	2.5 ± 0.1	2.42 ± 0.091
ALNGIDINTVNTNLMNG [GRR1]	3.29 ± 0.051	3.2 ± 0.052	3.08 ± 0.042	3.1 ± 0.045
ALNKISKYYPGVIIKVE [SNU114]	2.04 ± 0.057	1.53 ± 0.07	1.9 ± 0.085	2.33 ± 0.063
ALTVQEVLNRVASRHPS [YDL116W/NUP84]	3.1 ± 0.086	3.15 ± 0.073	3.12 ± 0.043	3.3 ± 0.047
AMANAPGNNIPYMNHKN [GAL11]	2.83 ± 0.17	3.26 ± 0.19	2.6 ± 0.18	2.75 ± 0.16
AMIDAGALEEITKDHKV [FAS2]		2.99 ± 0.14		2.19 ± 0.2
AMKELAEKKIPLVIRRY [RPO26]	1.28 ± 0.087	1.55 ± 0.092	1.7 ± 0.13	1.73 ± 0.11
AMTAAEHGLHAPAYAWS [CYT1]	3.16 ± 0.13	3.31 ± 0.097	2.8 ± 0.13	3.27 ± 0.064
ANAMNRMAKLCARFLGN [RPO31]	3.12 ± 0.21			
ANEDEEEQLDALECRLA [CSN12]		2.65 ± 0.28		
ANFIFSPASGIVDKYIG [RPT4]	2.81 ± 0.067	2.79 ± 0.097	1.93 ± 0.12	2.42 ± 0.077
ANKEKKRAEKAARKAEK [RPL24B]	3.34 ± 0.095	3.36 ± 0.082	3.58 ± 0.066	3.52 ± 0.078
ANLLFKKEKLKQENSTL [RPC82]	2.15 ± 0.077	2.24 ± 0.067	1.92 ± 0.12	1.93 ± 0.06

Sequence	protein stability index (doa10∆)	protein stability index (pdr5∆)	protein stability index (san1∆)	protein stability index (ubr1∆)
ANVFRLENQKDLVIVDE [MTW1]	3.49 ± 0.12	3.36 ± 0.15	3.4 ± 0.091	3.43 ± 0.074
ANVNASAMPAPYMPYYY [DSN1]	2.76 ± 0.06	2.88 ± 0.077	2.79 ± 0.059	2.65 ± 0.055
APEKDIWVGEWKEVLAH [RPO31]	2.47 ± 0.1	2.17 ± 0.082	2.16 ± 0.12	2.51 ± 0.062
APEQQVQQFAQLPVGFK [UBP6]	2.92 ± 0.08	2.99 ± 0.052	3.09 ± 0.059	2.99 ± 0.037
APHDSEATLLTNSNNGS [SNF5]	3.05 ± 0.065	2.85 ± 0.061	2.91 ± 0.045	2.97 ± 0.043
APKGSTDPKELYNNAHV [RPC40]	2.92 ± 0.14	2.96 ± 0.082	2.68 ± 0.11	3.21 ± 0.062
APMRLATAALEIILKLC [YJL039C/NUP192]	1.6 ± 0.064	2.06 ± 0.043	1.31 ± 0.087	2.4 ± 0.057
APTRELVQQIQKETQKV [PRP28]	2.8 ± 0.087	3.14 ± 0.078	2.95 ± 0.06	3.14 ± 0.065
APVETKKKRFEIKKWTA [HRT1]	3.15 ± 0.094	3.48 ± 0.13	2.93 ± 0.12	3.27 ± 0.09
AQDEEIHKQIVIEMKRC [UBP6]			3.26 ± 0.066	3.2 ± 0.14
AQQQKRGGFGGRNRGRP [RPS2]	3.32 ± 0.17	3.26 ± 0.13	3.31 ± 0.069	3.51 ± 0.15
AQSHQRFNAKVSMVKRA [CDC53]	1.34 ± 0.045	2.09 ± 0.061	1.56 ± 0.16	1.64 ± 0.031
ARAAKIAPRPLDLLRPV [RPL13B]	2.81 ± 0.07	3.04 ± 0.064	3.07 ± 0.056	2.41 ± 0.043
ARDLATMTYEEVAKRLV [FAS1]	2.94 ± 0.11	3.3 ± 0.082	3.12 ± 0.13	3.02 ± 0.073
ARDLLDDLEKTLDKKDS [RPN9]	3.21 ± 0.17	2.75 ± 0.11	3.15 ± 0.12	2.56 ± 0.1
ARILARSERKRTKISRG [ITC1]	2.56 ± 0.062	3.1 ± 0.074	3.07 ± 0.078	2.06 ± 0.046
ARKSKEEREAAASKVKL [RPC53]	3.16 ± 0.22			
ASEREELALIEEAYDNP [PRP8]	3 ± 0.12	3.23 ± 0.096	3.35 ± 0.065	3.5 ± 0.14
ASHNVRRIPKRMRNRAL [POP1]	2.11 ± 0.16	2.34 ± 0.058		2.07 ± 0.25
ASIESADILCPLLESFI [IRR1]	3.19 ± 0.14	2.48 ± 0.11		2.85 ± 0.13
ASKLAAYNKKSTISARE [HTB1]	3.22 ± 0.12			3.21 ± 0.11
ASLNLLQLAPGAHLGRF [RPL4A]	3.33 ± 0.16	3.03 ± 0.15	3.18 ± 0.092	3.26 ± 0.076
ASRDKTLISWKLTGDDQ [ASC1]	1.32 ± 0.14	1.68 ± 0.13		1.61 ± 0.094
ASRNVWSFYNGNVLIND [SNU114]	2.87 ± 0.12	3.1 ± 0.082	3.5 ± 0.053	2.99 ± 0.063
ASSNFPFLNETKPGVYY [RPC82]	3.09 ± 0.12	2.43 ± 0.09	2.73 ± 0.091	2.99 ± 0.072
ASVVPSASSLVITALKE [RPL12A]	2.09 ± 0.044	2.3 ± 0.051	2.12 ± 0.071	1.96 ± 0.045
